B1: PKD2L1 (parent)
chain: VFIFYYVVEEILELHIHRLRYLSS
B2: KRT18 (parent)
chain: RVRSLETENRRLESKIREHLEKKG

Variants of: B1
Assay: protein stability index of a GFP-peptide fusion (GPS, HEK-293T) (PSI 1-6); higher = more stable
Conditions: c terminus: a fixed tail appended
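Note: lentivirally expressed fusions sorted by FACS into six bins by GFP to DsRed ratio, PSI derived from sequencing read proportions per bin multiplied by bin number.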

For VNIFYYVVEEILELHIHRLRYLSS, which protein stability index is on record?
Its protein stability index is 3.7.

For VMIFYYVVEEILELHIHRLRYLSS, which protein stability index is on record?
The protein stability index was 4.81.

For VEIFYYVVEEILELHIHRLRYLSS, which protein stability index is on record?
The protein stability index was 1.5.

Which protein stability index does the source give for VAIFYYVVEEILELHIHRLRYLSS here?
Its protein stability index is 1.52.

For VRIFYYVVEEILELHIHRLRYLSS, which protein stability index is on record?
Its protein stability index is 3.23.

For VIIFYYVVEEILELHIHRLRYLSS, which protein stability index is on record?
The protein stability index was 3.92.

With VYIFYYVVEEILELHIHRLRYLSS as the variant, how does the protein stability index read?
The protein stability index was 3.06.

For VHIFYYVVEEILELHIHRLRYLSS, which protein stability index is on record?
The protein stability index was 1.63.

With VSIFYYVVEEILELHIHRLRYLSS as the variant, how does the protein stability index read?
Its protein stability index is 2.65.

Which protein stability index does the source give for VQIFYYVVEEILELHIHRLRYLSS here?
The protein stability index was 3.67.

For VTIFYYVVEEILELHIHRLRYLSS, which protein stability index is on record?
The protein stability index was 3.77.

For VLIFYYVVEEILELHIHRLRYLSS, which protein stability index is on record?
The protein stability index was 2.11.

For VGIFYYVVEEILELHIHRLRYLSS, which protein stability index is on record?
Its protein stability index is 3.34.

For VKIFYYVVEEILELHIHRLRYLSS, which protein stability index is on record?
The protein stability index was 2.56.

Which protein stability index does the source give for VPIFYYVVEEILELHIHRLRYLSS here?
Its protein stability index is 2.

For PFIFYYVVEEILELHIHRLRYLSS, which protein stability index is on record?
The protein stability index was 2.44.

For YFIFYYVVEEILELHIHRLRYLSS, which protein stability index is on record?
The protein stability index was 2.76.

With HFIFYYVVEEILELHIHRLRYLSS as the variant, how does the protein stability index read?
The protein stability index was 2.21.

With SFIFYYVVEEILELHIHRLRYLSS as the variant, how does the protein stability index read?
The protein stability index was 1.97.

For LFIFYYVVEEILELHIHRLRYLSS, which protein stability index is on record?
Its protein stability index is 2.15.

Which protein stability index does the source give for FFIFYYVVEEILELHIHRLRYLSS here?
Its protein stability index is 1.49.

With NFIFYYVVEEILELHIHRLRYLSS as the variant, how does the protein stability index read?
The protein stability index was 2.89.

Which protein stability index does the source give for CFIFYYVVEEILELHIHRLRYLSS here?
The protein stability index was 1.97.

With GFIFYYVVEEILELHIHRLRYLSS as the variant, how does the protein stability index read?
Its protein stability index is 3.

With RFIFYYVVEEILELHIHRLRYLSS as the variant, how does the protein stability index read?
Its protein stability index is 2.23.

With KFIFYYVVEEILELHIHRLRYLSS as the variant, how does the protein stability index read?
Its protein stability index is 2.63.

Which protein stability index does the source give for WFIFYYVVEEILELHIHRLRYLSS here?
Its protein stability index is 2.35.

Variants of: B2
Assay: as above
Conditions: c terminus: a fixed tail appended

For RVRSLETENRRLESKNREHLEKKG, which protein stability index is on record?
Its protein stability index is 5.56.

For RVRSLETENRRLESKTREHLEKKG, which protein stability index is on record?
Its protein stability index is 4.29.

For RVRSLETENRRLESKEREHLEKKG, which protein stability index is on record?
Its protein stability index is 3.79.

With RVRSLETENRRLESKSREHLEKKG as the variant, how does the protein stability index read?
The protein stability index was 5.16.

For RVRSLETENRRLESKWREHLEKKG, which protein stability index is on record?
The protein stability index was 4.96.

Which protein stability index does the source give for RVRSLETENRRLESKDREHLEKKG here?
Its protein stability index is 5.71.

For RVRSLETENRRLESKIDEHLEKKG, which protein stability index is on record?
Its protein stability index is 5.49.

With RVRSLETENRRLESKIQEHLEKKG as the variant, how does the protein stability index read?
The protein stability index was 4.54.

Which protein stability index does the source give for RVRSLETENRRLESKIGEHLEKKG here?
The protein stability index was 5.38.

With RVRSLETENRRLESKIHEHLEKKG as the variant, how does the protein stability index read?
The protein stability index was 5.06.

Which protein stability index does the source give for RVRSLETENRRLESKIPEHLEKKG here?
The protein stability index was 4.84.

With RVRSLETENRRLESKIYEHLEKKG as the variant, how does the protein stability index read?
Its protein stability index is 4.92.

With RVRSLETENRRLESKITEHLEKKG as the variant, how does the protein stability index read?
Its protein stability index is 5.

With RVRSLETENRRLESKIKEHLEKKG as the variant, how does the protein stability index read?
Its protein stability index is 4.39.

With RVRSLETENRRLESKIIEHLEKKG as the variant, how does the protein stability index read?
The protein stability index was 4.37.

Which protein stability index does the source give for RVRSLETENRALESKIREHLEKKG here?
Its protein stability index is 4.43.

Which protein stability index does the source give for RVRSLETENRLLESKIREHLEKKG here?
Its protein stability index is 4.31.

Which protein stability index does the source give for RVRSLETENRCLESKIREHLEKKG here?
The protein stability index was 4.96.

Which protein stability index does the source give for RVRSLETENRVLESKIREHLEKKG here?
Its protein stability index is 4.79.

With RVRSLETENRNLESKIREHLEKKG as the variant, how does the protein stability index read?
The protein stability index was 4.35.

For RVRSLETENRTLESKIREHLEKKG, which protein stability index is on record?
Its protein stability index is 4.94.

For RVRSLETENRHLESKIREHLEKKG, which protein stability index is on record?
Its protein stability index is 4.91.

For RVRSLETENRFLESKIREHLEKKG, which protein stability index is on record?
The protein stability index was 4.74.

For RVPSLETENRRLESKIREHLEKKG, which protein stability index is on record?
The protein stability index was 4.42.

With RVQSLETENRRLESKIREHLEKKG as the variant, how does the protein stability index read?
The protein stability index was 4.37.

Which protein stability index does the source give for RVMSLETENRRLESKIREHLEKKG here?
The protein stability index was 3.72.

With RVESLETENRRLESKIREHLEKKG as the variant, how does the protein stability index read?
The protein stability index was 4.85.

Which protein stability index does the source give for RVYSLETENRRLESKIREHLEKKG here?
The protein stability index was 3.15.

Which protein stability index does the source give for RVISLETENRRLESKIREHLEKKG here?
The protein stability index was 3.91.

For RVCSLETENRRLESKIREHLEKKG, which protein stability index is on record?
The protein stability index was 3.42.

Which protein stability index does the source give for RVRSLETENRRLESKIREHLDKKG here?
The protein stability index was 4.98.

Which protein stability index does the source give for RVRSLETENRRLESKIREHLGKKG here?
The protein stability index was 4.62.

Which protein stability index does the source give for RVRSLETENRRLESKIREHLTKKG here?
Its protein stability index is 4.2.

For RVRSLETENRRLESKIREHLHKKG, which protein stability index is on record?
Its protein stability index is 4.43.

Which protein stability index does the source give for RVRSLETENRRLESKIREHLNKKG here?
The protein stability index was 4.11.

Which protein stability index does the source give for RNRSLETENRRLESKIREHLEKKG here?
The protein stability index was 4.16.

Which protein stability index does the source give for RCRSLETENRRLESKIREHLEKKG here?
The protein stability index was 4.78.

With RTRSLETENRRLESKIREHLEKKG as the variant, how does the protein stability index read?
The protein stability index was 5.11.

Which protein stability index does the source give for RPRSLETENRRLESKIREHLEKKG here?
The protein stability index was 4.65.

Which protein stability index does the source give for RVRSLETENCRLESKIREHLEKKG here?
The protein stability index was 4.

For RVRSLETENYRLESKIREHLEKKG, which protein stability index is on record?
Its protein stability index is 4.94.

For RVRSLETENMRLESKIREHLEKKG, which protein stability index is on record?
The protein stability index was 5.26.

With RVRSLETENIRLESKIREHLEKKG as the variant, how does the protein stability index read?
The protein stability index was 4.42.

With RVRSLETENARLESKIREHLEKKG as the variant, how does the protein stability index read?
Its protein stability index is 4.16.

Which protein stability index does the source give for RVRSLETENLRLESKIREHLEKKG here?
Its protein stability index is 4.49.

Which protein stability index does the source give for RVRSLETENSRLESKIREHLEKKG here?
Its protein stability index is 4.88.

For RVRSLETENRRLESKIREHLEAKG, which protein stability index is on record?
Its protein stability index is 3.65.

Which protein stability index does the source give for RVRSLETENRRLESKIREHLEWKG here?
Its protein stability index is 3.02.

For RVRSLETENRRLESKIREHLEEKG, which protein stability index is on record?
Its protein stability index is 4.86.

Which protein stability index does the source give for RVRSLETENRRLESKIREHLECKG here?
The protein stability index was 4.61.

Which protein stability index does the source give for RVRSLETENRRLESKIREHLENKG here?
The protein stability index was 4.09.

Which protein stability index does the source give for RVRSLETENRRLESKIREHLEGKG here?
Its protein stability index is 4.06.

Which protein stability index does the source give for RVRSLETENRRLEEKIREHLEKKG here?
The protein stability index was 4.78.

With RVRSLETENRRLEIKIREHLEKKG as the variant, how does the protein stability index read?
The protein stability index was 4.38.

For RVRSLETENRRLENKIREHLEKKG, which protein stability index is on record?
Its protein stability index is 3.68.

For RVRSLETENRRLELKIREHLEKKG, which protein stability index is on record?
The protein stability index was 4.59.

For RVRSLETENRRLEQKIREHLEKKG, which protein stability index is on record?
Its protein stability index is 4.99.

Which protein stability index does the source give for RVRSLETENRRLEWKIREHLEKKG here?
The protein stability index was 3.98.

For RVRSLETENRRLEGKIREHLEKKG, which protein stability index is on record?
The protein stability index was 4.96.

Which protein stability index does the source give for RVRSLETENRRLESKIRCHLEKKG here?
Its protein stability index is 3.81.

For RVRSLETENRRLESKIRPHLEKKG, which protein stability index is on record?
Its protein stability index is 4.88.

With RVRSLETENRRLESKIRFHLEKKG as the variant, how does the protein stability index read?
The protein stability index was 3.22.

For RVRSLETENRRLESKIRIHLEKKG, which protein stability index is on record?
Its protein stability index is 4.29.

Which protein stability index does the source give for RVRSLETENRRLESKIRGHLEKKG here?
Its protein stability index is 4.91.

For RVRSLETENRRLESKIREDLEKKG, which protein stability index is on record?
Its protein stability index is 5.22.

For RVRSLETENRRLESKIRECLEKKG, which protein stability index is on record?
Its protein stability index is 3.82.

Which protein stability index does the source give for RVRSLETENRRLESKIRETLEKKG here?
The protein stability index was 5.01.
